Measured values taken from patent US20250136710A1 (COMPUGEN, published 2025).

T1: PVR (UniProt P15151 21-343, limits assumed)
T1 construct: also called poliovirus receptor; CD155
T1 sequence (looked up): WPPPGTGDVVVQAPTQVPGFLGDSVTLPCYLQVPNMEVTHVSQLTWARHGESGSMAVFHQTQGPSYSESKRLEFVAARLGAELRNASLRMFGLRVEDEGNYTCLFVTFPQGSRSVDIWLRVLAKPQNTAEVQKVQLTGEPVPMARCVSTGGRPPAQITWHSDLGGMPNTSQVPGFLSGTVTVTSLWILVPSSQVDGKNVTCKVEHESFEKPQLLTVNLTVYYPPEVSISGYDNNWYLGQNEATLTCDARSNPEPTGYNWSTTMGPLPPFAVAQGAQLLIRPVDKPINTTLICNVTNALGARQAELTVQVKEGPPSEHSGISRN

T2: PVRL2 (human, UniProt Q92692 32-360, limits assumed)
T2 construct: also called PVLR2; CD112
T2 sequence (looked up): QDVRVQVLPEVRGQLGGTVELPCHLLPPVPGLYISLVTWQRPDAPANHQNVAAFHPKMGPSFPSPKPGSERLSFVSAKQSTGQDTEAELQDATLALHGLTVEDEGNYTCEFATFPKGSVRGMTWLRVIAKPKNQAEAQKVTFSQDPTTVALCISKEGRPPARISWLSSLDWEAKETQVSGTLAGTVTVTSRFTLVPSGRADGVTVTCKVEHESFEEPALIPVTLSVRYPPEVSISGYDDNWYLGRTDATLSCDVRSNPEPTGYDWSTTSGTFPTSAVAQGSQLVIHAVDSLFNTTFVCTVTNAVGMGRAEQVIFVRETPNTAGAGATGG

B1: TIGIT (receptor, human, UniProt Q495A1 22-141, looked up)
chain: MMTGTIETTGNISAEKGGSIILQCHLSSTTAQVTQVNWEQQDQLLAICNADLGWHISPSFKDRVAPGPGLGLTLQSLTVNDTGEYFCIYHTYPDGTYTGRIFLEVLESSVAEHGARFQIP
notes: also called human TIGIT
B2: PVRIG (receptor, human, UniProt Q6DKI7 41-171, looked up)
chain: TPEVWVQVRMEATELSSFTIRCGFLGSGSISLVTVSWGGPNGAGGTTLAVLHPERGIRQWAPARQARWETQSSISLILEGSGASSPCANTTFCCKFASFPEGSWEACGSLPPSSDPGLSAPPTPAPILRAD
notes: also called CD112R; Human Poliovirus Receptor Related Immunoglobulin Domain Containing Protein

Tests used:
PVR = biological target: T1, PVR; assay: not described at this place
PVRL2 = biological target: T2, PVRL2; assay: not described at this place

Binder | binding result (PVR) | binding result (PVRL2)
B1 | binds | 
B2 |  | binds
